Data on 10 molecules can be found in US11130803B2, “Isoform-selective TGFβ1 inhibitors and use thereof” (Scholar Rock, Inc., priority 2018, dated 2021).

B1: Ab22: monoclonal antibody; VH SEQ ID NO: 130, VL SEQ ID NO: 15 (antibody, V domains shown)
VH: EVQLVESGGGLVQPGGSLRLSCAASGFTFGSFSMNWVRQAPGKGLEWVSYIHSDASTIYYADSVKGRFTISRDNAKNSLYLQMNSLRAEDTAVYYCARGVLDYGDMLDPWGQGTLVTVSS
VL: DIQMTQSPSSLSASVGDRVTITCQASQDITNYLNWYQQKPGKAPKLLIYDASNLETGVPSRFSGSGSGTDFTFTISSLQPEDIATYYCQQADNHPPWTFGGGTKVEIK
B2: Ab29: monoclonal antibody; VH SEQ ID NO: 137, VL SEQ ID NO: 15 (antibody, V domains shown)
VH: B1 VH with G16R, G30S, S33A, H52S, S53P, D62G, A97V, G99A
VL: B1 VL
B3: Ab33: monoclonal antibody; VH SEQ ID NO: 141, VL SEQ ID NO: 15 (antibody, V domains shown)
VH: B1 VH with G30S, H52S, S53P, D54S, S56D, S78T, R98H
VL: B1 VL
B4: Ab31: monoclonal antibody; VH SEQ ID NO: 139, VL SEQ ID NO: 15 (antibody, V domains shown)
VH: B1 VH with G30S, N35D, H52S, S53P, S78T, G99A
VL: B1 VL
B5: Ab24: monoclonal antibody; VH SEQ ID NO: 132, VL SEQ ID NO: 15 (antibody, V domains shown)
VH: B1 VH with G16R, G30S, S33A, N35Y, H52S, S53P
VL: B1 VL
B6: Ab26: monoclonal antibody; VH SEQ ID NO: 134, VL SEQ ID NO: 15 (antibody, V domains shown)
VH: B1 VH with G30S, N35D, H52S, S53P, S78T
VL: B1 VL
B7: Ab30: monoclonal antibody; VH SEQ ID NO: 138, VL SEQ ID NO: 15 (antibody, V domains shown)
VH: B1 VH with G30S, N35D, H52S, S53P, V100T
VL: B1 VL
B8: Ab32: monoclonal antibody; VH SEQ ID NO: 140, VL SEQ ID NO: 15 (antibody, V domains shown)
VH: B1 VH with G30S, H52S, S53P, D54S, S56D, S78T, L101W, Y103M
VL: B1 VL
B9: Ab11: monoclonal antibody; VH SEQ ID NO: 239, VL SEQ ID NO: 241 (antibody, V domains shown)
VH: EVQLLESGGGLVQPGGSLRLSCAASGFTFRNYAMSWVRQAPGKGLEWVSSISGSGGATYYADSVKGRFTISRDNSKNTLYLQMNSLRAEDTAVYYCARVSSGHWDFDYWGQGTLVTVSS
VL: DIQLTQSPSSLSASVGDRVTITCRASQSISSYLNWYQQKPGKAPKLLIYAASNLQSGVPSRFSGSGSGTDFTLTISSLQPEDFATYYCQQTYTVPLTFGGGTKVEIK
B10: Ab20: monoclonal antibody; VH SEQ ID NO: 251, VL SEQ ID NO: 241 (antibody, V domains shown)
VH: B9 VH with R30S, N31A, S35T, S50A, A57V, F106Y
VL: B9 VL

Where a chain is given by its changes, count along the chain named.

T4 sequence (P01137 30-390): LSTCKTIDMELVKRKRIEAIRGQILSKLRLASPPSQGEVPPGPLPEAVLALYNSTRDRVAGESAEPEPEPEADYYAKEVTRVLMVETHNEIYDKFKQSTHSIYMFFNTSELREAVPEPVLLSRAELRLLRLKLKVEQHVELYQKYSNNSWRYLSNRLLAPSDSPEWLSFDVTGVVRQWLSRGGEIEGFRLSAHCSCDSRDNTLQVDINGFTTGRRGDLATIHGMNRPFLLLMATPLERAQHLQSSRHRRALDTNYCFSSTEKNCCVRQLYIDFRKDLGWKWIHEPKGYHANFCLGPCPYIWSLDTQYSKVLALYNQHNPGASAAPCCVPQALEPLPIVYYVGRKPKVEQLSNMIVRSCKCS
T4 sequence (Q14766 873-1507 partner): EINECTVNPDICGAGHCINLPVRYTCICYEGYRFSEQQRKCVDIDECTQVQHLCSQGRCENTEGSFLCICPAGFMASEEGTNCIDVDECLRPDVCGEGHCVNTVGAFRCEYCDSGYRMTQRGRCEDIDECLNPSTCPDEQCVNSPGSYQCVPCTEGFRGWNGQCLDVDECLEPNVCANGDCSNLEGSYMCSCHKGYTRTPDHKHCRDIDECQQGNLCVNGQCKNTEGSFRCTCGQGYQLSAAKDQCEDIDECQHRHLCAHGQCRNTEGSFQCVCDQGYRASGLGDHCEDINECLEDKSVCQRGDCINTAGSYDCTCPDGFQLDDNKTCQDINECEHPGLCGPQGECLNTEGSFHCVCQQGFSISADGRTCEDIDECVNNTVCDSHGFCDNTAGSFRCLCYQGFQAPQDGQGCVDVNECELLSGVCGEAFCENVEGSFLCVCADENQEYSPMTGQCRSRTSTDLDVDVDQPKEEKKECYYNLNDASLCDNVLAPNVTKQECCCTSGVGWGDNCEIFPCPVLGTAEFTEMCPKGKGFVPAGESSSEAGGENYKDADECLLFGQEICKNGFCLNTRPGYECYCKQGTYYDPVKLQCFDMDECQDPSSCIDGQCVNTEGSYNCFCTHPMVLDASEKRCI

The first assay concerns matrix-associated (LTBP1/LTBP3) and cell-associated (GARP/LRRC33) proTGFβ1 complexes. As to the kind of experiment: Octet: average KD and fold bias, matrix- vs cell-associated complexes. It is filed as binding, human. As to conditions: average KD of (B) and (C), read-out: (D) ECM AVRG. (In general: In BLI a coated tip is dipped into the sample, and binding shifts an interference pattern.)
B1: the Kd was 324 pM.
Same read-out and setting: as for B2, the figure is 155 pM.
The same measure, in the same setting: as for B3, the figure is 145 pM; as for B4, 208 pM; as for B5, 222 pM.
For B6, the Kd worked out at 197 pM.
The same measure, in the same setting: as for B7, the figure is 296 pM; as for B8, 242 pM.
Still for that read-out and setting: the result for B9 reads 160 pM.
Same read-out and setting: as for B10, the figure is 162 pM.

The target of another assay is T1, hGARP-proTGFβ1 (Homo sapiens, UniProt P01137).
T1 construct: made in house
T1 sequence (P01137 30-390): as the sequence (P01137 30-390) above
T1 sequence (Q14392 20-627 partner limits assumed): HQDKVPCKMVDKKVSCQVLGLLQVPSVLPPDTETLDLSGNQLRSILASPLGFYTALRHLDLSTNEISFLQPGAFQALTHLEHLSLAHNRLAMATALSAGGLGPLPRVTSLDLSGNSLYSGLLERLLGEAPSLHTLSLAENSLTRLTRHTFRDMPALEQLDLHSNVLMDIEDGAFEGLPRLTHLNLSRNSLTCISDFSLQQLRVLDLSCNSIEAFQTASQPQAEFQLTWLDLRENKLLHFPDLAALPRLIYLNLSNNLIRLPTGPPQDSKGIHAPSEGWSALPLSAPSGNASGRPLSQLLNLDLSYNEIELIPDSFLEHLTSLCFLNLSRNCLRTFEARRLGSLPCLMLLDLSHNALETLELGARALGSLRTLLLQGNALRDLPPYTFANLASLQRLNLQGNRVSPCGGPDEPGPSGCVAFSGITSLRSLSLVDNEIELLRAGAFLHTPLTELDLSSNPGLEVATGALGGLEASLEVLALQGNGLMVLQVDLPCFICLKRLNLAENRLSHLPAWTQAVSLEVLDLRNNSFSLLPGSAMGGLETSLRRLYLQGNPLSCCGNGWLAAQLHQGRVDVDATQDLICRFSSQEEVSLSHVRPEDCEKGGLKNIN
Kind of assay: MSD-SET solution equilibrium titration binding. As to conditions: MSD-SET at equilibrium, hIgG4, human complex; in M. From the text: (§1) Solution Equilibrium Titration (SET): The SET is an assay whereby binding between two molecules (such as an antigen and an antibody that binds the antigen) can be measured at equilibrium in a solution. For example, Meso-Scale Discovery (“MSD”)-based SET, or MSD-SET, is a useful mode of determining dissociation constants for particularly high-affinity protein-protein interactions at equilibrium, such as picomolar-affinity antibodies binding to their antigens (see, for example: Ducata et al. (2015) J Biomolecular Screening 20(10): 1256-1267). The SET-based assays are particularly useful for determining KD values of antibodies with sub-nanomolar (e.g., picomolar) affinities.
(§2) In view of this, it is contemplated that assays that measure binding affinities of such antibodies at equilibrium may more accurately represent the mode of target engagement in vivo. Thus, MSD-SET-based binding assays (or other suitable assays) may be performed, as exemplified in Table 9 below.
(§3) Solution equilibrium titration (“SET”) is an assay whereby binding between two molecules (such as an antigen and an antibody that binds the antigen) can be measured at equilibrium in a solution. For example, Meso-Scale Discovery (“MSD”)-based SET, or MSD-SET, is a useful mode of determining dissociation constants for particularly high-affinity protein-protein interactions at equilibrium (see, for example: Ducata et al. (2015) J Biomolecular Screening 20(10): 1256-1267). The SET-based assays are particularly useful for determining KD values of antibodies with sub-nanomolar (e.g., picomolar) affinities.
(§4) For solution equilibrium titration-based binding assays, protein complexes that comprise one of the presenting molecules such as those shown above may be employed as antigen (presenting molecule-TGFβ1 complex, or an LLC). Test antibodies are allowed to form antigen-antibody complex in solution. Antigen-antibody reaction mixtures are incubated to allow an equilibrium to be reached; the amount of the antigen-antibody complex present in the assay reactions can be measured by suitable means well known in the art. As compared to BLI-based assays, SET-based assays are less affected by on/off rates of the antigen-antibody complex, allowing sensitive detection of very high affinity interactions.
With B1, the “(E) hGARP, Cell-associated proTGFβ1 KD” value was determined as 2.70E−11.
As to B2, the “(E) hGARP, Cell-associated proTGFβ1 KD” value is on record as 5.50E−12.
Still for that read-out and setting: the result for B3 reads 7.80E−12; that for B4, 1.90E−11.
In the case of B5, the “(E) hGARP, Cell-associated proTGFβ1 KD” value was determined as 1.90E−11.
Same read-out and setting: as for B6, the figure is 1.40E−11; as for B7, 2.20E−11.
As to B8, the “(E) hGARP, Cell-associated proTGFβ1 KD” value was 1.50E−11.
The same measure, in the same setting: the result for B9 reads 3.00E−09; that for B10, 1.10E−09.

For another assay, the target named is T2, hLTBP3-proTGFβ1 (Homo sapiens, UniProt P01137).
T2 construct: made in house; host or cells: Expi293F cells, transient co-transfection
T2 sequence (P01137 30-390): as the sequence (P01137 30-390) above
T2 sequence (Q9NS15 866-1039 partner limits assumed): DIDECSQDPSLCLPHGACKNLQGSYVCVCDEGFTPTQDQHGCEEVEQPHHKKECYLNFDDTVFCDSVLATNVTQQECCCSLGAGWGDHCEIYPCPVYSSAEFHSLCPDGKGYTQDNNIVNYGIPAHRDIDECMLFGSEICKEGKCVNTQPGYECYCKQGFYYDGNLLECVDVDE
Kind of assay: MSD-SET solution equilibrium titration binding. As to conditions: MSD-SET at equilibrium, hIgG4, human complex; in M.
From the text: as §1, §2, §3, §4
For B1, the “(C) hLTBP3, Matrix-associated proTGFβ1 KD” value (“(C) hLTBP3” for short) was 3.30E−11.
Same read-out and setting: the result for B2 reads 1.10E−11.
On the same count and under the same terms, as for B3, the figure is 7.00E−12; as for B4, 1.40E−11.
On the same count and under the same terms, the result for B5 reads 2.10E−11.
In the case of B6, the “(C) hLTBP3” value worked out at 2.30E−11.
On the same count and under the same terms, as for B7, the figure is 2.60E−11.
As to B8, the “(C) hLTBP3” value is listed as 2.60E−11.
Still for that read-out and setting: as for B9, the figure is 1.20E−09.
The same measure, in the same setting: as for B10, the figure is 1.80E−10.

The target of another assay is T3, hLRRC33-proTGFβ1 (Homo sapiens, UniProt P01137).
T3 construct: made in house
T3 sequence (P01137 30-390): as the sequence (P01137 30-390) above
T3 sequence (Q86YC3 19-650 partner limits assumed): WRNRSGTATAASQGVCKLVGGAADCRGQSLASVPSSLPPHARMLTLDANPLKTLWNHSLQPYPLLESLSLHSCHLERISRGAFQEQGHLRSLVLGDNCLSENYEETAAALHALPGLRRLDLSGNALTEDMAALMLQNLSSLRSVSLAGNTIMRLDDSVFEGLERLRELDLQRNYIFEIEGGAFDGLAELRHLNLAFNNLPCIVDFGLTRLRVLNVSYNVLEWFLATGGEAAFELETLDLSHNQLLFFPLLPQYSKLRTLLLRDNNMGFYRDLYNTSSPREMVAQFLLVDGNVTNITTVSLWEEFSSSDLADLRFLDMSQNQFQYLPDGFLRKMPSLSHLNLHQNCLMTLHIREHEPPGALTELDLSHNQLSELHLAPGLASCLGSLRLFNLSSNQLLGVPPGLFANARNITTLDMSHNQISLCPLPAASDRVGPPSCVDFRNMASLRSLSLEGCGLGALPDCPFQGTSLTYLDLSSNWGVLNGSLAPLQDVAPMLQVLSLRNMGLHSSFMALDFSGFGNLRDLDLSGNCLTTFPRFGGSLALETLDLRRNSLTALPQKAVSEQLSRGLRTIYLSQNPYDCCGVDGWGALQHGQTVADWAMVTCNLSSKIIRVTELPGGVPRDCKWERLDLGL
Kind of assay: MSD-SET solution equilibrium titration binding. As to conditions: MSD-SET at equilibrium, hIgG4, human complex; in M.
From the text: as §1, §2, §3, §4
Consider B1, for which the “(F) hLRRC33, Cell-associated proTGFβ1 KD” value came to 2.00E−10.
Still for that read-out and setting: as for B2, the figure is 4.30E−11.
The same measure, in the same setting: as for B3, the figure is 4.60E−11.
On the same count and under the same terms, the result for B4 reads 9.60E−11.
With B5, the “(F) hLRRC33, Cell-associated proTGFβ1 KD” value was found to be 1.80E−10.
Turning to B6, the “(F) hLRRC33, Cell-associated proTGFβ1 KD” value turned out to be 1.30E−10.
With B7, the “(F) hLRRC33, Cell-associated proTGFβ1 KD” value stood at 1.40E−10.
On the same count and under the same terms, the result for B8 reads 8.70E−11.
Turning to B9, the “(F) hLRRC33, Cell-associated proTGFβ1 KD” value is on record as 6.30E−09.
Still for that read-out and setting: as for B10, the figure is 1.60E−09.

The next assay has as its target T4, hLTBP1-proTGFβ1 (Homo sapiens, UniProt P01137).
T4 construct: made in house; host or cells: Expi293F cells, transient co-transfection
As to the kind of experiment: MSD-SET solution equilibrium titration binding. As to conditions: MSD-SET at equilibrium, hIgG4, human complex; in M.
From the text: as §1, §2, §3, §4
Turning to B1, the “(B) hLTBP1, Matrix-associated proTGFβ1 KD” value (“(B) hLTBP1” for short) came out at 5.00E−11.
Still for that read-out and setting: the result for B2 reads 1.20E−11.
As to B3, the “(B) hLTBP1” value is 1.10E−11.
Still for that read-out and setting: the result for B4 reads 1.90E−11; that for B5, 2.40E−11.
Same read-out and setting: the result for B6 reads 2.80E−11.
In the case of B7, the “(B) hLTBP1” value worked out at 3.10E−11.
As for B8, the “(B) hLTBP1” value came to 3.70E−11.
On the same count and under the same terms, the result for B9 reads 1.20E−09; that for B10, 2.20E−10.

The next assay deals with matrix-associated (LTBP1/LTBP3) and cell-associated (GARP/LRRC33) proTGFβ1 complexes. Kind of assay: Octet: average KD and fold bias, matrix- vs cell-associated complexes. Type of assay: binding, human. The conditions noted are these: average KD of (E) and (F), cell-associated complexes, read-out: (G) Cell AVRG. From the text: Column (A) of the table lists monoclonal antibodies with discrete amino acid sequences. […] Columns (B), (D), (E) and (F) provide affinities of each of the listed antibodies, measured in KD. […] Average KD values of (B) and (C) are shown in the corresponding column (D), which collectively represents affinities of the antibodies to ECM- or matrix-associated proTGFβ1 complexes. Similarly, Average KD values of (E) and (F) are shown in the corresponding column (G), which collectively represents affinities of the antibodies to cell-surface or cell-associated proTGFβ1 complexes. Finally, relative ratios between the average KD values from columns (D) and (G) are expressed as “fold bias” in column (H). […] This is one way of quantitatively representing and comparing inherent bias of antibodies to their target complexes.
Average KD values between the two matrix-associated and cell-associated complexes are calculated, respectively (see columns (D) and (G)). These average KD values can then be used to ask whether bias in binding activities exists between complexes associated with matrix vs. complexes associated with cell surface (e.g., immune cells). Bias may be expressed as “fold-difference” in the average KD values, as illustrated in Table 8.
Regarding B1, the Kd turned out to be 694 pM.
On to B2, for which the Kd amounted to 304 pM.
Same read-out and setting: as for B3, the figure is 302 pM; as for B4, 496 pM; as for B5, 538 pM.
Same read-out and setting: the result for B6 reads 492 pM.
Same read-out and setting: as for B7, the figure is 684 pM; as for B8, 597 pM.
As to B9, the Kd was found to be 698 pM.
For the molecule B10, the Kd was determined as 714 pM.

Still in this assay, the particulars now being: ratio of average KD cell-associated / matrix-associated.
With B1, the “(H) G/D (fold bias)” value came out at 2.147 fold.
On the same count and under the same terms, as for B2, the figure is 1.965 fold.
On the same count and under the same terms, the result for B3 reads 2.083 fold.
On the same count and under the same terms, as for B4, the figure is 2.376 fold.
As to B5, the “(H) G/D (fold bias)” value came out at 2.421 fold.
Still for that read-out and setting: as for B6, the figure is 2.500 fold.
Consider B7, for which the “(H) G/D (fold bias)” value worked out at 2.307 fold.
On the same count and under the same terms, the result for B8 reads 2.467 fold; that for B9, 4.352 fold.
Same read-out and setting: as for B10, the figure is 4.424 fold.
